We go through 3 sequences from the supplement of paper PMC6379048.

Experiment in all cases: EC50 of free RNA motif oligo competing protein binding to immobilised probe
For one data set, the target named is T1, LSM6 (UniProt P62312).
T1 sequence: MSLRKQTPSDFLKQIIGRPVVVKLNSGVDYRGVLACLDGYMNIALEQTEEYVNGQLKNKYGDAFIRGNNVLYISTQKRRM
The essentials:
(§1)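 HEK293-FT lysate (2.5 mg protein/well) was treated with free RNA oligos (0 nM to 30 μM) for 1 h at 4°C, then with the same oligos on NHS-Sepharose beads for 30 min at 4°C. Bound proteins were quantified by label-free LC-MS/MS relative to the control. EC50 came from a four-parameter log-logistic fit, and Kd is EC50 times a protein-dependent depletion factor.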

Another data set concerns the target T2, CHERP (UniProt Q8IWX8).
T2 sequence: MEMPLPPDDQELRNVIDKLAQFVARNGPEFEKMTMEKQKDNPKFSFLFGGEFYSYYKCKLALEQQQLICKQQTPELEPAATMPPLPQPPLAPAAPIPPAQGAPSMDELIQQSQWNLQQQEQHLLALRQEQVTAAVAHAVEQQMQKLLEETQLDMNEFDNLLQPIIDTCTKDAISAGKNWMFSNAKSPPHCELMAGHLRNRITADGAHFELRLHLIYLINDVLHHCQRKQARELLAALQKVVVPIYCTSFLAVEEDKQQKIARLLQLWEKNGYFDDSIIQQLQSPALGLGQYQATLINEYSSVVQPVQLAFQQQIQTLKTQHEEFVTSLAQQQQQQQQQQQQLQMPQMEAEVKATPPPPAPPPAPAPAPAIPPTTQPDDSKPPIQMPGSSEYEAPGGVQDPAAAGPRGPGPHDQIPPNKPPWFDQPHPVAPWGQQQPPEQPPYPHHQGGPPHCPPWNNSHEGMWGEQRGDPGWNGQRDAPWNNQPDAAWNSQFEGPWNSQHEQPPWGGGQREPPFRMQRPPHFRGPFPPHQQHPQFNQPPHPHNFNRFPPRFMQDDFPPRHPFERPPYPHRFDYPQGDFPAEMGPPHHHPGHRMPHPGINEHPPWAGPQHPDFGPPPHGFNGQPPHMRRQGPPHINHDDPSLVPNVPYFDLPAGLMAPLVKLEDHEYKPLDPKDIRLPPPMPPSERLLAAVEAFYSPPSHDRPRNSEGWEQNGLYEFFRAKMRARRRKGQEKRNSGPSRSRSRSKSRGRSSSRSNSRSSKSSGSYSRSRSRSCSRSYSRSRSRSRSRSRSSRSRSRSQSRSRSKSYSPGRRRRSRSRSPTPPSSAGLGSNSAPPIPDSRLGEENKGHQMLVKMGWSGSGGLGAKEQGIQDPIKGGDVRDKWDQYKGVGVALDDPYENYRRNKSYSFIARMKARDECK
The essentials:
as §1

The next data set concerns the target T3, RBM4 (UniProt Q9BWF3).
T3 sequence: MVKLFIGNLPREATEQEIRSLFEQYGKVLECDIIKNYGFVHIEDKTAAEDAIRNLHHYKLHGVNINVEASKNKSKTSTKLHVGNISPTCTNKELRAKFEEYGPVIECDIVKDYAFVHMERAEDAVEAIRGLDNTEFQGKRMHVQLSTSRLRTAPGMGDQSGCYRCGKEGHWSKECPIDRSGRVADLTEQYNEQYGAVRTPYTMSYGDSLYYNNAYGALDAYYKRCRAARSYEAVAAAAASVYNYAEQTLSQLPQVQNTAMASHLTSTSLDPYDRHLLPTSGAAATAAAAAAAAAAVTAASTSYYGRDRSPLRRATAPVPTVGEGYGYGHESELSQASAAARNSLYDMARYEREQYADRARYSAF
The essentials:
as §1

The target in another data set is T4, GPATCH3 (UniProt Q96I76).
T4 sequence: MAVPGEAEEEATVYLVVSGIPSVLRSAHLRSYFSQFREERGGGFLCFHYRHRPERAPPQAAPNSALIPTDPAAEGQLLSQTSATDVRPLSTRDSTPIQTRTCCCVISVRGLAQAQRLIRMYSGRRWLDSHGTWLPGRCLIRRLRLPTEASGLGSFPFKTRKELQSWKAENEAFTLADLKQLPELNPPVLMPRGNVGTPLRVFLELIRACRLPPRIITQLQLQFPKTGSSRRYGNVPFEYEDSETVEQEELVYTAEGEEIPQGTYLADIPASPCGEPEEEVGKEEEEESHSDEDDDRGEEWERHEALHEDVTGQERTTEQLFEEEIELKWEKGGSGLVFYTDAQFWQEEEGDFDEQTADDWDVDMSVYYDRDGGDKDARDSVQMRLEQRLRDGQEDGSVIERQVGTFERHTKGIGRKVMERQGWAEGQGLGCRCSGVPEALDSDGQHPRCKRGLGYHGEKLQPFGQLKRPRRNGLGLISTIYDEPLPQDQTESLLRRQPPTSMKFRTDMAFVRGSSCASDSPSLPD
The essentials: as §1

A further data set addresses TOE1 (UniProt Q96GM8). The essentials: as §1

In the case of AAUAAA, the EC50 with LSM6 came out at 797 nM; in the data set with CHERP, 1050 nM; in the data set with RBM4, 4160 nM; with GPATCH3 it was 884 nM; with TOE1, 2110 nM.
CUGUCCU came in with an EC50 with RBM4 of 371 nM. In other words, the sub-micromolar range.
For UAUUUAU, the EC50 with LSM6 amounted to 447 nM; in the data set with CHERP, 35.1 nM; with GPATCH3 it was 326 nM; in the data set with TOE1 it was 1420 nM.
